According to PMC5397363 (Molecular microbiology, 2017):

Test system: fluorogenic substrate
Assay type: biochemical, Staphylococcus aureus
Conditions: 2.0 μM fluorogenic substrate; for measureable activity of mutant enzyme: enzyme 21.38 nM (dimer), n ≥ 3

Molecule	measureable activity of mutant enzyme	activity relative to the wild-type enzyme (enzyme 213.8 nM)
G21A (protein, left off: His6, N-terminal, cleaved | SUMO, N-terminal, cleaved) MITVDITVNDEGKVTDVIMDAHADHGEYGHDIVCAGASAVLFGSVNAIIGLTSERPDINYDDNGGHFHIRSVDTNNDEAQLILQTMLVSLQTIEEEYNENIRLNYK	none	–
S38A (protein, left off: His6, N-terminal, cleaved | SUMO, N-terminal, cleaved) MITVDITVNDEGKVTDVIMDGHADHGEYGHDIVCAGAAAVLFGSVNAIIGLTSERPDINYDDNGGHFHIRSVDTNNDEAQLILQTMLVSLQTIEEEYNENIRLNYK	none	2.1 ± 0.2%
H22A (protein, left off: His6, N-terminal, cleaved | SUMO, N-terminal, cleaved) MITVDITVNDEGKVTDVIMDGAADHGEYGHDIVCAGASAVLFGSVNAIIGLTSERPDINYDDNGGHFHIRSVDTNNDEAQLILQTMLVSLQTIEEEYNENIRLNYK	none	–
D31A (protein, left off: His6, N-terminal, cleaved | SUMO, N-terminal, cleaved) MITVDITVNDEGKVTDVIMDGHADHGEYGHAIVCAGASAVLFGSVNAIIGLTSERPDINYDDNGGHFHIRSVDTNNDEAQLILQTMLVSLQTIEEEYNENIRLNYK	none	–
